The record followed here is WO2007054120A1 (dated 2007).

Test [1] addresses T1, recombinant fibronectin domain ED-B (His)6 (human, UniProt P02751 1266-1356).
T1 construct: domain: ED-B; Biotinylated ED-B was used only in pannings; also called rekombinantes ED-B; human ED-B
Nature of the test: SPR (BIAcore), about 100 RU ED-B on chip, Fab in flow. On the technique in general: In SPR one partner is held on a chip, and binding of the other changes the refractive index at the surface.

Test [2] has as its target T1, recombinant fibronectin domain ED-B …. Description: SPR (BIAcore), ED-B on chip, Fab in flow.
For test [3] the target is unchanged. Description: SPR (BIAcore), ED-B on chip, Fab monomer in flow.

B1: MOR03255 (Fab, V domains shown)
VH: QVQLVESGGGLVQPGGSLRLSCAASGFTFSSYGMHWVRQAPGKGLEWVSVISNRSSYIYYADSVKGRFTISRDNSKNTLYLQMNSLRAEDTAVYYCARNKVGFDVWGQGTLVTVSS
VL: DIALTQPASVSGSPGQSITISCTGTSSDGGGYNTVSWYQQHPGKAPKLMIYYVHKRPSGVSNRFSGSKSGNTASLTISGLQAEDEADYYCQSWDLSVHQVVFGGGTKLTVLG
Regarding B1, the Kd (commonly the free concentration of one partner at which half of the binding sites on the other are occupied at equilibrium, for simple one-to-one binding) in test [1] came out at 0.03 nM.

B2: MOR03062 (Fab, V domains shown)
VH: QVQLVESGGGLVQPGGSLRLSCAASGFTFSSYGMHWVRQAPGKGLEWVSVISSSGSYIYYADSVKGRFTISRDNSKNTLYLQMNSLRAEDTAVYYCARNKVGFDVWGQGTLVTVSS
VL: DIALTQPASVSGSPGQSITISCTGTSSDGGGYNTVSWYQQHPGKAPKLMIYYVHKRPSGVSNRFSGSKSGNTASLTISGLQAEDEADYYCQSWDLSVHQVVFGGGTKLTVLG
With B2, in test [2], the “fold affinity enhancement against MOR02715” value was determined as 15 fold. In test [3], the Kd was found to be 2.4 nM.

B3: MOR03258 (Fab, V domains shown)
VH: QVQLVESGGGLVQPGGSLRLSCAASGFTFSSYGMHWVRQAPGKGLEWVSVISNQSNYIYYADSVKGRFTISRDNSKNTLYLQMNSLRAEDTAVYYCARNKVGFDVWGQGTLVTVSS
VL: DIALTQPASVSGSPGQSITISCTGTSSDGGGYNTVSWYQQHPGKAPKLMIYYVHKRPSGVSNRFSGSKSGNTASLTISGLQAEDEADYYCQSWDLLAPSVVFGGGTKLTVL
As for B3, in test [1], the dissociation constant (Kd) came out at 0.04 nM.

B4: MOR03075 (Fab, V domains shown)
VH: QVQLQESGPGLVKPGETLSLTCTVSGGSISSYYWSWIRQAPGKGLEWIGIGHWGSTQYNPSLKGRVTISVDTSKNQFSLKLSSVTAEDTAVYYCARFFDVWGQGTLVTVSS
VL: DIVLTQPPSVSGAPGQRVTISCSGSSSNIGSNTVRWYQQLPGTAPKLLIYSNNKRPSGVPDRFSGSKSGTSASLAITGLQSEDEADYYCQSWDPRSFTVFGGGTKLTVLG
In the case of B4, the dissociation constant Kd in test [2] was found to be 2.4 nM.

B5: MOR03243 (Fab, V domains shown)
VH: QVQLQESGPGLVKPGETLSLTCTVSGGSISSYYWSWIRQAPGKGLEWIGEIHRGGYTQYNPSLKSRVTISVDTSKNQFSLKLSSVTAADTAVYYCARFFDVWGQGTLVTVSS
VL: DIVLTQPPSVSGAPGQRVTISCSGSSSNIGSNTVRWYQQLPGTAPKLLIYSNNKRPSGVPDRFSGSKSGTSASLAITGLQSEDEADYYCQAWTRAHRYPVFGGGTKLTVLG
As for B5, the Kd in test [1] is around 0.7 nM.

B6: MOR03245 (Fab, V domains shown)
VH: QVQLQESGPGLVKPGETLSLTCTVSGGSISSYYWSWIRQAPGKGLEWIGVIHKWGFTNYNPSLKSRVTISVDTSKNQFSLKLSSVTAADTAVYYCARFFDVWGQGTLVTVSS
VL: DIVLTQPPSVSGAPGQRVTISCSGSSSNIGSNTVRWYQQLPGTAPKLLIYSNNKRPSGVPDRFSGSKSGTSASLAITGLQSEDEADYYCWTGMSYHFVFGGGTKLTVLG
As for B6, in test [1], the dissociation constant Kd was around 0.7 nM.

B7: MOR03246 (Fab, V domains shown)
VH: QVQLVQSGAEVKKPGASVKVSCKASGYTFTGFYINWVRQAPGQGLEWMGWINPYSGNTRYAQKFQGRVTMTRDTSISTAYMELSSLRSEDTAVYYCARSPVYYKYDYWGQGTLVTVSS
VL: DIVLTQPPSVSGAPGQRVTISCSGSSSNIGSNTVRWYQQLPGTAPKLLIYSNNKRPSGVPDRFSGSKSGTSASLAITGLQSEDEADYYCQSWDPRSFTVFGGGTKLTVL
Regarding B7, the Kd in test [1] was 0.6 nM.
